Data taken from article PMC2891049.
Like-named read-outs stand apart in the source and are kept apart here.

T1: C-reactive protein (UniProt P02741 19-224)
T1 sequence: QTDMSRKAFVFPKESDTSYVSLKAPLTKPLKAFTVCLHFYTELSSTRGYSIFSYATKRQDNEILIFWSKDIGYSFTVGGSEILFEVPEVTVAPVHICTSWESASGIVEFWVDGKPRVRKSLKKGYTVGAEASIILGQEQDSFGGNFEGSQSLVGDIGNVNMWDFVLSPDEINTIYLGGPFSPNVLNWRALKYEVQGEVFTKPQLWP


Assays:
C-reactive protein [1] = molecular target: T1, C-reactive protein; test: pull-down
C-reactive protein [2] = molecular target: T1, C-reactive protein; test: pull-down; remark: listed apart in the source

Row | Binder | binding result (C-reactive protein [1]) | binding result (C-reactive protein [2])
1 | MB-P (PDGF-BB sensing aptamer) (structured_DNA) DNA: GATGTCCACGAGGTCTCTGCGGCATCAACAATCTCGAATTTTTTACTCAGGGCACTGCAAGCAATTGTGGTCCCAATGGGCTGAGTATCGTACGCTGCAGGTCGAC | no binding | –
2 | MB-T (thrombin sensing aptamer) (structured_DNA) DNA: GATGTCCACGAGGTCTCTATTGCATTCGCACTTCCGATTTTTTCAGTCCGTGGTAGGGCAGGTTGGGGTGACTCGTACGCTGCAGGTCGAC | – | no binding
